Results on one molecule are retold here after article PMC4447949, “Structures of the Ets Protein DNA-binding Domains of Transcription Factors Etv1, Etv4, Etv5, and Fev” (The Journal of Biological Chemistry, 2015).

Common to all, as to conditions: protein: recombinant; tags: N-terminal His6 removed by TEV (leaves SM); blunt
In data set [1] the target is T1, Etv1 S334E (human, UniProt P50549 326-429, S334E). The data set can be described thus: EMSA; 2 nM probe; 10 mM TCEP; saturates at 35% of probe; EMSA: 50 mM Tris-HCl pH 7.5, 50 mM NaCl, 2 mM MgCl2, 0.01% Tween 20, 5% glycerol, 1 h at room temperature; proteins reduced with 10 mM TCEP unless stated; 10% native PAGE.
T1 sequence (P50549 326-429 S334E): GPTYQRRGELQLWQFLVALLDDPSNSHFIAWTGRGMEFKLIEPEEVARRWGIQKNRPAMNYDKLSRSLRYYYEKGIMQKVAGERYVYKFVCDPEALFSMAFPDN
For data set [2], the target named is Etv1 K404A (human, UniProt P50549 326-429, K404A). The data set can be described thus: EMSA; 2 nM probe; EMSA: 50 mM Tris-HCl pH 7.5, 50 mM NaCl, 2 mM MgCl2, 0.01% Tween 20, 5% glycerol, 1 h at room temperature; proteins reduced with 10 mM TCEP unless stated; 10% native PAGE.
Sequence of Etv1 K404A (P50549 326-429 K404A): as the sequence (P50549 326-429 S334E) above, with E9S, K79A counted along it
For data set [3], the target named is T2, Etv1 C416S (human, UniProt P50549 326-429, C416S). The description is as above.
T2 sequence (P50549 326-429 C416S): as the sequence (P50549 326-429 S334E) above, with E9S, C91S counted along it
The target of data set [4] is T1, Etv1 S334E. The data set can be described thus: EMSA; 0.1 nM probe; 10 mM TCEP; EMSA: 50 mM Tris-HCl pH 7.5, 50 mM NaCl, 2 mM MgCl2, 0.01% Tween 20, 5% glycerol, 1 h at room temperature; proteins reduced with 10 mM TCEP unless stated; 10% native PAGE.
Data set [5] has as its target Etv1 Ets domain WT (reduced monomer) (human, UniProt P50549 326-429). The description is as above.
The target of data set [6] is Etv1 D387A (human, UniProt P50549 326-429, D387A). The data set is described as above.
Sequence of Etv1 D387A (P50549 326-429 D387A): as the sequence (P50549 326-429 S334E) above, with E9S, D62A counted along it
The target in data set [7] is Etv1 R391A (human, UniProt P50549 326-429, R391A). The data set is described as above.
Sequence of Etv1 R391A (P50549 326-429 R391A): as the sequence (P50549 326-429 S334E) above, with E9S, R66A counted along it
For data set [8], the target named is T3, Etv1 Y395F (human, UniProt P50549 326-429, Y395F). Described as above.
T3 sequence (P50549 326-429 Y395F): as the sequence (P50549 326-429 S334E) above, with E9S, Y70F counted along it
Data set [9] concerns the target Etv1 Y329S-P427S (human, UniProt P50549 326-429, Y329S;P427S). Described as above.
Data set [10] concerns the target T2, Etv1 C416S. The data set can be described thus: EMSA; 0.1 nM probe; EMSA: 50 mM Tris-HCl pH 7.5, 50 mM NaCl, 2 mM MgCl2, 0.01% Tween 20, 5% glycerol, 1 h at room temperature; proteins reduced with 10 mM TCEP unless stated; 10% native PAGE.
Data set [11] has as its target Etv5 Ets domain (human, UniProt P41161 365-462). The data set can be described thus: EMSA; 10 mM TCEP; probe 0.1 nM (Table 3) or 0.2 nM (Fig. 9); EMSA: 50 mM Tris-HCl pH 7.5, 50 mM NaCl, 2 mM MgCl2, 0.01% Tween 20, 5% glycerol, 1 h at room temperature; proteins reduced with 10 mM TCEP unless stated; 10% native PAGE.
For data set [12], the target named is Etv4 Ets domain (human, UniProt P43268 338-470). The data set is described as above.
Sequence of Etv4 Ets domain (P43268 338-470): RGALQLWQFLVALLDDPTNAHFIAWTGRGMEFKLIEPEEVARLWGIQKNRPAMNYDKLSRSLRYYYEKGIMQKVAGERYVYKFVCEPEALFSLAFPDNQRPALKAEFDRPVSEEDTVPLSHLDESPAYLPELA
In data set [13] the target is Etv1 K379A (human, UniProt P50549 326-429, K379A). Nature of the data set: EMSA; 2 nM and 0.1 nM probe; EMSA: 50 mM Tris-HCl pH 7.5, 50 mM NaCl, 2 mM MgCl2, 0.01% Tween 20, 5% glycerol, 1 h at room temperature; proteins reduced with 10 mM TCEP unless stated; 10% native PAGE.
Sequence of Etv1 K379A (P50549 326-429 K379A): as the sequence (P50549 326-429 S334E) above, with E9S, K54A counted along it
Data set [14] deals with Etv1 Y397F (human, UniProt P50549 326-429, Y397F). Nature of the data set: EMSA; 2 nM probe; undetectable or below regression threshold; EMSA: 50 mM Tris-HCl pH 7.5, 50 mM NaCl, 2 mM MgCl2, 0.01% Tween 20, 5% glycerol, 1 h at room temperature; proteins reduced with 10 mM TCEP unless stated; 10% native PAGE.
Sequence of Etv1 Y397F (P50549 326-429 Y397F): as the sequence (P50549 326-429 S334E) above, with E9S, Y72F counted along it
Data set [15] concerns the target T3, Etv1 Y395F. Nature of the data set: EMSA; 2 nM probe; 10 mM TCEP; saturates at 60% of probe; EMSA: 50 mM Tris-HCl pH 7.5, 50 mM NaCl, 2 mM MgCl2, 0.01% Tween 20, 5% glycerol, 1 h at room temperature; proteins reduced with 10 mM TCEP unless stated; 10% native PAGE.

Sequence of Etv5 Ets domain (P41161 365-462): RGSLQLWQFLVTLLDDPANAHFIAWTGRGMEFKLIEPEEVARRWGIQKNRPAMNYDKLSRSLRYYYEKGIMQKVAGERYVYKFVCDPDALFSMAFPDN
Sequence of Etv1 Y329S-P427S (P50549 326-429 Y329S/P427S): as the sequence (P50549 326-429 S334E) above, with Y4S, E9S, P102S counted along it
Sequence of Etv1 Ets domain WT (reduced monomer) (P50549 326-429): as the sequence (P50549 326-429 S334E) above, with E9S counted along it

B1: Etv1ALF/Etv1ALR EMSA probe (dsDNA)
DNA 1: ATCTCACCGGAAGTGTAGCA
DNA 2: TGCTACACTTCCGGTGAGAT
For the molecule B1, the Kd in data set [1] turned out to be 0.89 ± 0.32 nM; in data set [3], 0.46 ± 0.06 nM; in [4], 0.94 ± 0.51 nM; in data set [5], 0.59 ± 0.15 nM; in [6] it was 0.19 ± 0.03 nM; in [7], 8.6 ± 1.68 nM. Further, the Kd in data set [8] was 1.35 ± 1.05 nM; in [9], 0.31 ± 0.06 nM; in data set [10], 0.26 ± 0.06 nM; in data set [11], 1.16 ± 0.11 nM; in data set [12] it was 0.34 ± 0.066 nM; in data set [15], 0.23 ± 0.05 nM. The binding result in [2], in data set [13] and in data set [14] was “no binding” each time.
